Measured values published in patent US20230312722A1 (NONA BIOSCIENCES SUZHOU, published 2023).

T1: mouse B7H4 on the cell surface (mouse, UniProt Q7TSP5 25-257)
T1 construct: whole, on cells; also called CHOK1/m B7H4
T1 sequence (looked up): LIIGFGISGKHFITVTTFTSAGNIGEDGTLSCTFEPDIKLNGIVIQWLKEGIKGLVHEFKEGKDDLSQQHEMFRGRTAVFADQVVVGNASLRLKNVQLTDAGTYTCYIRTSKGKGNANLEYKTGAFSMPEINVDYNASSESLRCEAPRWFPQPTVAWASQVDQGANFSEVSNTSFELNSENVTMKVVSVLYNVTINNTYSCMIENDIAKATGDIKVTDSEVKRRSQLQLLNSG

T2: cynomolgus monkey B7H4 on the cell surface (cynomolgus monkey, UniProt A0A2K5U6P5 25-282)
T2 construct: whole, on cells; also called CHOK1/cyno B7H4
T2 sequence: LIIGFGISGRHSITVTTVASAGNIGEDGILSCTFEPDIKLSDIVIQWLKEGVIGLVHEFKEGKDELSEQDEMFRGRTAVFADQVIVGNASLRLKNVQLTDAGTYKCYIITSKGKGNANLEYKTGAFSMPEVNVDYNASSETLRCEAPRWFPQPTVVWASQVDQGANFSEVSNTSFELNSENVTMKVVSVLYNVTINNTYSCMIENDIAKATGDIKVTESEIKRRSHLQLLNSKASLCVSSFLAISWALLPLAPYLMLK

T3: human B7H4 on the cell surface (human, UniProt Q7Z7D3 25-282)
T3 construct: whole, on cells; also called CHOK1/hu B7H4; B7H4 on SK-BR-3
T3 sequence (looked up): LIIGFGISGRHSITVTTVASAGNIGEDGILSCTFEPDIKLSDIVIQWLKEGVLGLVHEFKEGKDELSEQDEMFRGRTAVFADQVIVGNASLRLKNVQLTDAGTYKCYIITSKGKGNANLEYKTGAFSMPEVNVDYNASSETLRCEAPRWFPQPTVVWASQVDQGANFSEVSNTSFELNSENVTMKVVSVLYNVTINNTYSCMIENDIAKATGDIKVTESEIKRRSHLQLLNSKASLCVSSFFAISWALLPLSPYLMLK

T4: human B7-H4 (recombinant protein of the BLI affinity assay, Example 7.2) (human, UniProt Q7Z7D3 29-258, limits assumed)
T4 construct: also called human B7H4 protein
T4 sequence (looked up): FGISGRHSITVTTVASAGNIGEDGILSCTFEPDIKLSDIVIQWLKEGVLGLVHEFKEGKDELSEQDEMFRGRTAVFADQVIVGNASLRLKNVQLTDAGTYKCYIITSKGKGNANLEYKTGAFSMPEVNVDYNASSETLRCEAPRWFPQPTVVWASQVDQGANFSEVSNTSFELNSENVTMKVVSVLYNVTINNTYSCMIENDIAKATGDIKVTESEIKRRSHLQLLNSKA


Experiments:
[1] = target: T1, mouse B7H4 on the cell surface; experiment: FACS, CHOK1/m B7H4 cells (FIG. 5)
Description: (§1) This example is intended to investigate the in vitro binding activity of anti-human B7H4 H2L2 monoclonal antibody to human/cynomolgus monkey/mouse B7H4. Antibody binding experiments at the cellular level were performed using CHOK1 cell line overexpressing human B7H4 (CHOK1/hu B7H4, Harbour BioMed), CHOK1 cell line overexpressing cynomolgus monkey B7H4 (CHOK1/cyno B7H4, Harbour BioMed), CHOK1 cell line overexpressing mouse B7H4 (CHOK1/m B7H4, Harbour BioMed) and SK-BR-3 cell line (ATCC® HTB-30) highly expressing human B7H4. Briefly, CHOK1/hu B7H4 cells, CHOK1/cyno B7H4 cells, CHOK1/m B7H4 cells or SK-BR-3 cells were digested and resuspended with PBS containing 2% BSA. The cell density was adjusted to 1×10⁶ cells/mL. The cells were seeded in a 96-well V-bottom plate (Corning, #3894) at 100 μL/well, followed by the addition of test antibodies diluted in a 3-fold concentration gradient of 2 times the final concentration, each at 100 μL/well. The cells were incubated at 4° C. for 2 h away from light. Thereafter, the cells in each well were rinsed twice with 100 μL of pre-cooled PBS containing 2% BSA, and centrifuged at 500 g at 4° C. for 5 min, and then the supernatant was discarded. […] Finally, the cells in each well were resuspended with 200 μL of pre-cooled PBS containing 2% BSA, and the fluorescence signal values were read using an ACEA Novocyte3000 flow cytometer.

[2] = target: T2, cynomolgus monkey B7H4 on the cell …; experiment: FACS, CHOK1/cyno B7H4 cells
Description: (§2) This example is intended to investigate the in vitro binding activity of anti-human B7H4 H2L2 monoclonal antibody to human/cynomolgus monkey/mouse B7H4. Antibody binding experiments at the cellular level were performed using CHOK1 cell line overexpressing human B7H4 (CHOK1/hu B7H4, Harbour BioMed), CHOK1 cell line overexpressing cynomolgus monkey B7H4 (CHOK1/cyno B7H4, Harbour BioMed), CHOK1 cell line overexpressing mouse B7H4 (CHOK1/m B7H4, Harbour BioMed) and SK-BR-3 cell line (ATCC® HTB-30) highly expressing human B7H4. Briefly, CHOK1/hu B7H4 cells, CHOK1/cyno B7H4 cells, CHOK1/m B7H4 cells or SK-BR-3 cells were digested and resuspended with PBS containing 2% BSA. The cell density was adjusted to 1×10⁶ cells/mL. The cells were seeded in a 96-well V-bottom plate (Corning, #3894) at 100 μL/well, followed by the addition of test antibodies diluted in a 3-fold concentration gradient of 2 times the final concentration, each at 100 μL/well. The cells were incubated at 4° C. for 2 h away from light. Thereafter, the cells in each well were rinsed twice with 100 μL of pre-cooled PBS containing 2% BSA, and centrifuged at 500 g at 4° C. for 5 min, and then the supernatant was discarded. Then 100 μL of a fluorescent secondary antibody (Alexa Fluor 488-conjugated AffiniPure Goat Anti-Human IgG, Fcγ Fragment Specific, Jackson, #109-545-098, 1:500 diluted) was added to each well. The plate was incubated away from light at 4° C. for 1 h. The cells in each well were washed twice with 100 μL of pre-cooled PBS containing 2% BSA, and centrifuged at 500 g at 4° C. for 5 minutes, and then the supernatant was discarded. Finally, the cells in each well were resuspended with 200 μL of pre-cooled PBS containing 2% BSA, and the fluorescence signal values were read using an ACEA Novocyte3000 flow cytometer.

[3] = target: T3, human B7H4 on the cell surface; experiment: FACS, SK-BR-3 cells
Description: as §2

[4] = target: T3, human B7H4 on the cell surface; experiment: FACS, CHOK1/hu B7H4 cells
Description: as §2

[5] = target: T3, human B7H4 on the cell surface; experiment: FACS, tumor cells (table head: SK-BR-3)
Description: as §1

[6] = target: T3, human B7H4 on the cell surface; experiment: FACS on MDA-MB-468 cells (head of the figure); the same number stands in Table 2-3 of the text under the head SK-BR-3
[7] = target: T3, human B7H4 on the cell surface; experiment: FACS on MDA-MB-468 cells; in the drawn table the number stands under the head 'Maximum MFI' (the two heads are interchanged); the head says nM, the axis of the curve µg/mL
[8] = target: T3, human B7H4 on the cell surface; experiment: FACS on MDA-MB-468 cells; in the drawn table the number stands under the head 'EC50 (nM)' (the two heads are interchanged)
[9] = target: T4, human B7-H4 (recombinant protein of the …); experiment: BLI (Octet Red 96e), antibody captured on AHC sensor, human B7-H4 in solution, 1:1 global fit
Description: When the affinity of the antigen for the antibody was determined, the rotation speed of the sensor was set at 1000 rpm/min. The AHC sensors (Fortebio, #18-5060) placed in a row were equilibrated for 10 minutes in a test buffer before the AHC sensors were used to capture the B7-H4 antibodies at a capture height of 0.7 nm; the AHC sensors, after equilibrated in the buffer for 120 s, bound to 2-fold serially diluted human B7-H4 (concentrations were 50 nM-3.125 nM and 0 nM) for 180 s, followed by dissociation for 300 s. Finally, the AHC sensor was immersed in a 10 mM glycine-hydrochloric acid solution at pH 1.5 for regeneration to elute the proteins bound to the sensor.
When data analysis was performed using Octet Data Analysis software (Fortebio, version 11.0), 0 nM was taken as a reference well, and reference subtraction was performed; the “1:1 Global fitting” method was selected to fit the data, and the kinetics parameters of the binding of antigens to antigen-binding proteins were calculated, with kₒₙ (1/Ms) values, kdis (1/s) values and KD(M) values obtained (see Table 7-2).

[10] = target: T3, human B7H4 on the cell surface; experiment: FACS on MDA-MB-468 cells

Row | binding result [1] | EC50 [2] [nM] | Maximum MFI [2] [MFI] | EC50 [3] [nM] | Maximum MFI [3] [MFI] | EC50 [4] [nM] | Maximum MFI [4] [MFI] | EC50 [5] [nM] | EC50 [6] [nM] | EC50 [7] [nM] | Maximum MFI [8] | Kd [9] [nM] | koff [9] [s⁻¹] | kon [9] [M⁻¹ s⁻¹] | EC50 (read off the curve) [10] [µg/mL] | Binder
1 | no binding | 24.8 | 677000 | 85.6 | 82800 | 20 | 1.15e+06 |  |  |  |  |  |  |  |  | PR002038 (antibody, human IgG1, kappa, V domains shown, Initial antibody, human IgG1; also called 1025_B-2A1) VH: QVQLVQSGAEVKKPGSSMRVSCKASEDTFSSYAISWVRQAPGQGLEWMGGTAPIFGTTNYAQKFQGRVTITADKSTSTAYMELSSLRSEDTAVYYCARGGPYFDYWGQGTLVTVSS VL: DIQLTQSPATLSVSPGERATLSCRASQSVSSNLAWYQQKPGQAPRLLIYGDYIRATGIPARFSGSGSGTEFTLTISSLQSEDIATYYCQQYVDLPITFGQGTRLEIKR
2 |  |  |  |  |  |  |  | 0.434 | 0.434 | 0.0508 | 204000 | 1.39 | 0.000394 | 283000 | ~0.05 | PR003369 (antibody, human IgG1, kappa, V domains shown, L: N92R; Fc S239D, I332E), human IgG1) VH: QVQLVESGGGVVQPGRSLRLSCAASGFTFRSFGMHWVRQAPGKGLEWVAVISYDASNEYYADSVKGRFIISRDNSKDTLYLQMNSLRAGDTAVYYCAKGGALRWYFAYWGQGTLVTVSS VL: EIVMTQSPATLSVSPGERATLSCRASQSISSNLGWYQQKPGQAPRLLIYGASTRATGIPARFSGSGSGTEFTLTISSLQSEDFAVYYCQQYRSWPPLTFGGGTKVEIKR
